In test [1] the target is voltage-gated sodium channel Nav1.4 (UniProt P35499).
Test [2] addresses voltage-gated sodium channel Nav1.7 (UniProt Q15858).
The target of test [3] is voltage-gated sodium channel Nav1.6 (UniProt Q9UQD0).
Test [4] deals with voltage-gated sodium channel Nav1.2 (UniProt Q99250).
Test [5] has as its target voltage-gated sodium channel Nav1.5 (UniProt Q14524).
Test [6] deals with voltage-gated sodium channel Nav1.7 (UniProt Q15858). The source holds these as a separate data set.
Sequence of voltage-gated sodium channel Nav1.7 (Q15858 whole entry): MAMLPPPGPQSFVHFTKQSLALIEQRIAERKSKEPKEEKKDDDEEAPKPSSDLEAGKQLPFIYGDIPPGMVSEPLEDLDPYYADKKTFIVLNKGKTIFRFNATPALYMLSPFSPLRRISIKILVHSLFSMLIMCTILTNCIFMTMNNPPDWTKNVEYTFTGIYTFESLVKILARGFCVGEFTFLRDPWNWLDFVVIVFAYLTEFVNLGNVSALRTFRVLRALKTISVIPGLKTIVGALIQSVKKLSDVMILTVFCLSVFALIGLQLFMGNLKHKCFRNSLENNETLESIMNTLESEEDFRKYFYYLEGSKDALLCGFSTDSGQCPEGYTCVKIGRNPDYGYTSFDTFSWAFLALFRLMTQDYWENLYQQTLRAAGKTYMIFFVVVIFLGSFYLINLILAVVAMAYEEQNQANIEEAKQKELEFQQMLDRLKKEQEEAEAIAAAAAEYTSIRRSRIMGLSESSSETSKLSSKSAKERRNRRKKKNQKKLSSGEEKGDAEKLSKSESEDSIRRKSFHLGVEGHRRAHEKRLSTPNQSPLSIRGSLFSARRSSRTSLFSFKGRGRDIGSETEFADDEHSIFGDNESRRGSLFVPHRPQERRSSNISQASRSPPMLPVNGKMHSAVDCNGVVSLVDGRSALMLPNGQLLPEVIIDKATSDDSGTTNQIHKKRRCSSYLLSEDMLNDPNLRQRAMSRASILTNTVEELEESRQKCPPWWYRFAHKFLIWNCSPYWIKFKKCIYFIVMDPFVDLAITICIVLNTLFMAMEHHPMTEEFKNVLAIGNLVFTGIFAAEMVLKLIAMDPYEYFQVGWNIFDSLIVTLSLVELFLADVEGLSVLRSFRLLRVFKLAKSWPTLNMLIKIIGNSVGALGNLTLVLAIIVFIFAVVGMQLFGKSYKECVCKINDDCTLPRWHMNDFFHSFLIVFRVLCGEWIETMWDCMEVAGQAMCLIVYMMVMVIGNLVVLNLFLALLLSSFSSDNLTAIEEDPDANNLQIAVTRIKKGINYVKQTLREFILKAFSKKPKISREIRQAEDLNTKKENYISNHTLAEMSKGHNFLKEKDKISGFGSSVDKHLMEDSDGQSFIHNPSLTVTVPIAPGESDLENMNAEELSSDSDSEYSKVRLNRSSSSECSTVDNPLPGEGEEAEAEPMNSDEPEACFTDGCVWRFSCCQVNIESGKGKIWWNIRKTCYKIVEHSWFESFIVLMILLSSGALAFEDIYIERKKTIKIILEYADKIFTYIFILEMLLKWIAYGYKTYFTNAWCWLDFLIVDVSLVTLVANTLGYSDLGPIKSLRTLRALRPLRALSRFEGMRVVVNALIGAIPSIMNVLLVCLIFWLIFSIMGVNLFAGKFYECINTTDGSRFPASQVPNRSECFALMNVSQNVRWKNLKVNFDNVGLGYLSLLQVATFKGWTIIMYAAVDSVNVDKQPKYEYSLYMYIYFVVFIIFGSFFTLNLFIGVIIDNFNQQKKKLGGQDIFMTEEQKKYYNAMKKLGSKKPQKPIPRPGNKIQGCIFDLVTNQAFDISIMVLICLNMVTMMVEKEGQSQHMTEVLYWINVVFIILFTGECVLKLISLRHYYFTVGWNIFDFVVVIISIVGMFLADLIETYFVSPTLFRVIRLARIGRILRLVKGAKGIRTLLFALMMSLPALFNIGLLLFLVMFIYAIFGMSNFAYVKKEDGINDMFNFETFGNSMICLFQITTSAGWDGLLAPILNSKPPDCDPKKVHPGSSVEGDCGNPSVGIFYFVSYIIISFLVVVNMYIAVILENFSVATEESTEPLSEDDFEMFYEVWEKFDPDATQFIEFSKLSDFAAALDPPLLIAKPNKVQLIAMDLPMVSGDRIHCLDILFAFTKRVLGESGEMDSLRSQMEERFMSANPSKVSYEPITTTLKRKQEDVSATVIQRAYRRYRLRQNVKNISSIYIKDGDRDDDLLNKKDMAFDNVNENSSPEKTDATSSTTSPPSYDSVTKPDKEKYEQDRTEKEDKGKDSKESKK
In test [7] the target is voltage-gated sodium channel Nav1.3 (UniProt Q9NY46).
The target of test [8] is voltage-gated sodium channel Nav1.4 (UniProt P35499). The source holds these as a separate data set.
In test [9] the target is voltage-gated sodium channel Nav1.1 (UniProt P35498).

Sequence of voltage-gated sodium channel Nav1.4 (P35499 whole entry): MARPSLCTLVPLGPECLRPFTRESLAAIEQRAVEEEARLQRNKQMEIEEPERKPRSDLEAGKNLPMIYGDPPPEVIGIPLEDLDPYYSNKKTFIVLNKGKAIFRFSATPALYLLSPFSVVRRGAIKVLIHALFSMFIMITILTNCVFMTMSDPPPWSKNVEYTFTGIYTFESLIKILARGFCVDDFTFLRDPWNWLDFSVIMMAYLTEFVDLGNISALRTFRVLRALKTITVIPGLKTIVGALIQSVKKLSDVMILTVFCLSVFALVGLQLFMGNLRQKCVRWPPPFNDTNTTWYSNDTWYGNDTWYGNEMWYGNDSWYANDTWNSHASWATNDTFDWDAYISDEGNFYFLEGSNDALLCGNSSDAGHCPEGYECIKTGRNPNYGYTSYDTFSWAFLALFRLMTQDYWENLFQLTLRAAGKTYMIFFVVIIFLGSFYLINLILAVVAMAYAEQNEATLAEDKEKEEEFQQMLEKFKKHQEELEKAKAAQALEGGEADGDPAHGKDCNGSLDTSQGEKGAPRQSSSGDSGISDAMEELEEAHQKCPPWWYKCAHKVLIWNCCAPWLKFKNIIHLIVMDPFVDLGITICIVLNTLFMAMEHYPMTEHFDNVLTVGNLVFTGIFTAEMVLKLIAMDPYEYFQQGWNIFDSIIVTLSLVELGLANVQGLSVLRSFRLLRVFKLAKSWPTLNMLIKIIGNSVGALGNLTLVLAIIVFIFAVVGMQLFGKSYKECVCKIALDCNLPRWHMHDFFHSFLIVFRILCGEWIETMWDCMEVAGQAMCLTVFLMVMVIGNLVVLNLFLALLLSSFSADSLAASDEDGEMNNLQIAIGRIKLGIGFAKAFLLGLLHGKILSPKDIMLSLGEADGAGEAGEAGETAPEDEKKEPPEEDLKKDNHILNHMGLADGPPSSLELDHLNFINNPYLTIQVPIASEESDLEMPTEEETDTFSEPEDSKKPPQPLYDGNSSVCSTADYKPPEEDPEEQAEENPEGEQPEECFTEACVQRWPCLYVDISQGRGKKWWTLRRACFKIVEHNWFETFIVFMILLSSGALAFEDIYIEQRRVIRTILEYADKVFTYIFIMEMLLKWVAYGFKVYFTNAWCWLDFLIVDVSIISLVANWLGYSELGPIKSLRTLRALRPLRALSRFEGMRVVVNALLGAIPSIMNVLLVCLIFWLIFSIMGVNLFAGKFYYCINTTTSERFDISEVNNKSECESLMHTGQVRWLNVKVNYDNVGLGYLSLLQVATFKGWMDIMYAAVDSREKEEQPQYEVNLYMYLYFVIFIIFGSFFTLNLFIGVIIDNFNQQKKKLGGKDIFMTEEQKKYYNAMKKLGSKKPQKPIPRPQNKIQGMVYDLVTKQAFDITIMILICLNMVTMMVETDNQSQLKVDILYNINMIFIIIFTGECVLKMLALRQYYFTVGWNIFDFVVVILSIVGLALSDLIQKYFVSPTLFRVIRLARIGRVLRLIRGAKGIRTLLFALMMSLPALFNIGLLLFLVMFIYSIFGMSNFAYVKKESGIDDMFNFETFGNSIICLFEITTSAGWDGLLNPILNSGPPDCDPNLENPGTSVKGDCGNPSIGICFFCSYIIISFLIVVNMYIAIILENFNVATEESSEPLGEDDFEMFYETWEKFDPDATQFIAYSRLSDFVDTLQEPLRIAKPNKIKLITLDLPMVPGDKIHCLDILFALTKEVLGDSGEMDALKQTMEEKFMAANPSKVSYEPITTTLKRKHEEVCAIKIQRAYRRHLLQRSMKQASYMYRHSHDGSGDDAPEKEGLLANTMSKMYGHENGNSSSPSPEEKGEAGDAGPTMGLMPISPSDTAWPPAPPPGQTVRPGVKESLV
Sequence of Tst3 toxin from Tityus stigmurus venom (P0C8X5 whole entry): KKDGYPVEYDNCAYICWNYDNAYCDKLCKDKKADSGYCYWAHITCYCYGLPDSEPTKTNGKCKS

On to “Ts3 toxin from Tityus serrulatus venom (natural protein)”, for which, in [1], the increase of the fast inactivation time constant (Δτ) of Nav1.4 currents recorded at 0 mV, whole-cell patch clamp, 200 nM Ts3 stood at 4.82 ms; the increase of the persistent current (ΔIPers) of Nav1.4, whole-cell patch clamp, 200 nM Ts3 came out at 3.1%; the shift of the half-maximal activation voltage (ΔV1/2) of Nav1.4, whole-cell patch clamp, 200 nM Ts3 was -4.15 mV; the shift of the half-maximal steady-state inactivation voltage (ΔV1/2h) of Nav1.4, whole-cell patch clamp, 200 nM Ts3 is 2.03 mV. The substance also yielded a delay of fast inactivation of Nav1.7 currents recorded at 0 mV, whole-cell patch clamp, 200 nM Ts3 in test [2] of 9.37 ms.

With “Tst3 toxin from Tityus stigmurus venom (from UniProt P0C8X5 1-64) (natural protein)”, in test [3], the increase of the fast inactivation time constant (Δτ) of Nav1.6, whole-cell patch clamp, 200 nM Tst3 is 6.37 ms and the shift of the half-maximal activation voltage (ΔV1/2) of Nav1.6, whole-cell patch clamp, 200 nM Tst3 is -3.82 mV. In addition, in [4], the increase of the fast inactivation time constant (Δτ) of Nav1.2, whole-cell patch clamp, 200 nM Tst3 worked out at 9.17 ms and the shift of the half-maximal activation voltage (ΔV1/2) of Nav1.2, whole-cell patch clamp, 200 nM Tst3 is -9.02 mV. In addition, in [5], the increase of the fast inactivation time constant (Δτ) of Nav1.5, whole-cell patch clamp, 200 nM Tst3 came to 13.2 ms and the shift of the half-maximal activation voltage (ΔV1/2) of Nav1.5, whole-cell patch clamp, 200 nM Tst3 was -8.66 mV. In addition, in test [6], the increase of the fast inactivation time constant (Δτ) of Nav1.7, activation protocol of the isoform screen, whole-cell patch clamp, 200 nM Tst3 turned out to be 18.8 ms and the shift of the half-maximal activation voltage (ΔV1/2) of Nav1.7, whole-cell patch clamp, 200 nM Tst3 is -8.55 mV. For the same substance, in test [7], the increase of the fast inactivation time constant (Δτ) of Nav1.3, whole-cell patch clamp, 200 nM Tst3 came to 6.87 ms and the shift of the half-maximal activation voltage (ΔV1/2) of Nav1.3, whole-cell patch clamp, 200 nM Tst3 was -8.68 mV. This substance showed an increase of the fast inactivation time constant (Δτ) of Nav1.4, activation protocol of the isoform screen, whole-cell patch clamp, 200 nM Tst3 in test [8] of 5.61 ms. Besides, in test [9], the increase of the fast inactivation time constant (Δτ) of Nav1.1, whole-cell patch clamp, 200 nM Tst3 worked out at 5.71 ms and the shift of the half-maximal activation voltage (ΔV1/2) of Nav1.1, whole-cell patch clamp, 200 nM Tst3 was -7.15 mV. For the same substance, in test [1], the increase of the fast inactivation time constant (Δτ) of Nav1.4 currents recorded at 0 mV, two-step protocol of the Tst3/Ts3 comparison, whole-cell patch clamp, 200 nM Tst3 turned out to be 6.09 ms; the increase of the persistent current (ΔIPers) of Nav1.4, whole-cell patch clamp, 200 nM Tst3 is 4.4%; the shift of the half-maximal activation voltage (ΔV1/2) of Nav1.4, whole-cell patch clamp, 200 nM Tst3 is -5.19 mV; the shift of the half-maximal steady-state inactivation voltage (ΔV1/2h) of Nav1.4, whole-cell patch clamp, 200 nM Tst3 was found to be 1.22 mV. Also, in [2], the delay of fast inactivation of Nav1.7 currents recorded at 0 mV, whole-cell patch clamp, 200 nM Tst3 came to 12.6 ms.

For the origin of these results see article PMC11209618.
